Results published in patent US20070185028A1, “Compositions and methods for treatment of protein misfolding and protein aggregation diseases” (priority 2004, published 2007).

Columns and labels:
[1] = target: Aβ (Homo sapiens, UniProt P05067); test: Aβ Thioflavin T fluorescence (fibrillization, 50° C., 72 hours); type: biochemical; settings: 1:10 Aβ:peptide; for effect on the fibrillization of Aβ (ranking): 72 hrs; for Δfluorescence (Aβ): Thioflavin T, 50° C., 72 hours
Description: Aβ Thioflaviin T fluorescence. Aβ fibrils were grown in the presence and absence of αB crystallin and peptides in conditions similar to that previously described for the presence of αB crystallin. Bakthisaran et al., Biochem J, 2005. Peptides were dissolved to 9.1 mM in trifluorethanol (TFE) and diluted to 0.91 mM stock solutions in 50 mM PBS, 100 mM NaCl, pH 7.4. 3.5 mg of Thioflavin T was dissolved in 100 μl of 50 mM Glycine pH 8.5. A stock solution of 1 mg/ml (0.22 mM) Aβ was prepared. 20 μl Aβ, 50 μl chaperone, 2 μl Thioflavin T was mixed with 28 μl 50 mM PBS, 100 mM NaCl, pH 7.4. Fluorescence was read using a Beckman Coultier DTX 880 multimode detector. Samples were heated at 50° C. for 72 hours and fluorescence was read again.
The fibrillization of Aβ was measured as fluorescence of the fluorescent dye Thioflavin T from solutions containing 1:10 monomeric molar ratio of Aβ:peptide. In the absence of Aβ fibrils, Thioflavin T had little or no fluorescence. The fluorescence of the Thioflavin T bound to Aβ fibrils in the absence of any other molecule after 72 hrs was set to 100%. […] Fibril formation=ΔfluorescenceAβ (with chaperone)*100/ΔfluorescenceAβ (without chaperone).

[2] = target: T1, Aβ1-42 (Homo sapiens, UniProt P05067); test: Aβ1-42 fibril formation ThT fluorescence assay; type: biochemical; settings: for decrease in ThT fluorescence of Aβ1-42: 30 μM Aβ1-42, 48 hrs
T1 construct: Aβ1-42 (American Peptide); purchased American Peptide
Description: The effect of five synthesized αB crystallin peptides STSLSPFYLRPPSFLRAP (ST), DRFSVNLDVKHFS (DR), HGKHEERQDE (HG), LTITSSLSSDGV (LT), and ERTIPITRE (ER) on Aβ1-42 fibrillation was measured using the ThT fluorescence assay (FIG. 1). The formation and inhibition of Aβ1-42 fibrils was qualitatively verified by fluorescence and bright-field microscopy. The concentration and stoichometry of the peptides was varied relative to Aβ1-42 to establish a concentration curve. In addition, the effect of two known inhibitors of Aβ1-42 fibrillation (APS and NAP) and a control neuropeptide (AT1) with no fibril inhibition activity was measured and compared to the effect of the αB crystallin peptides on Aβ1-42 fibrillation. The ThT fluorescence of 30 μM Aβ1-42 alone incubated at 37° C. for 48 hrs increased from ˜350,000 to ˜450,000 RFU. […] In contrast, 6 μM DR, LT, and […] had no effect on Aβ1-42 fibril formation. […] Increasing the concentration of the DR peptide to 30 μM decreased the ThT fluorescence by approximately 50%. […] However, when the concentrations of the LT and ER peptides were increased to 150 μM, a 60-100% decrease in ThT fluorescence was measured. […] The negative control peptide AT1 had no effect on Aβ1-42 fibril formation even at a concentration as high as 300 μM.
The Thioflavin T (ThT) fluorescence of Aβ1-42 in the presence of varying concentrations of αB crystallin peptides and controls was measured. […] Addition of 6 μM DR, LT, and ER had no effect on the ThT fluorescence of Aβ1-42. When the concentration of the peptides was increased to 30 μM (1:1::peptide:Aβ1-42), the αB crystallin peptides ST, DR, HG decreased the ThT fluorescence by 50-100%. At the same concentrations, APS and NAP decreased the ThT fluorescence by 30-100%. When the concentration of the peptides was increased further to 150 μM ([…]), four of the five αB crystallin peptides DR, HG, LT, and ER decreased the ThT fluorescence by 58-100%. At the same concentrations, APS and NAP decreased the fluorescence by 28-100%. […] The formation and inhibition of Aβ fibrils was verified microscopically.
Thioflavin T (ThT) Assays. The effect of the five αB crystallin peptides (ST, DR, HG, LT, and ER) on Aβ1-42 fibril formation was measured using the ThT fluorescence assay (44-47) and compared with two known inhibitors of Aβ1-42 fibril formation (Tramiprosate and NAP)(34, 36) and a negative control neuropeptide Angiotensin 1 (AT1). Thioflavin T is a fluorescent dye that has a high affinity for amyloid fibrils and becomes fluorescent (excitation λ=450 nm, emission λ=486 nm) when bound to fibrils. For the Aβ1-42 assays, peptides and APS were dissolved to 2 mM in 0.25% DMSO and diluted accordingly, while Aβ1-42 was dissolved in 20 mM Tris-Cl, pH 7.40, and 100 mM NaCl. For the 5:1::inhibitor:Aβ1-42 assay, 10 μL of 450 μM peptide or APS was mixed with 10 μL of 90 μM Aβ1-42), 7 μL 20 mM Tris-Cl, 100 mM NaCl, pH 7.4 and 3 μL of 1 mM ThT. For the 1:1::inhibitor:Aβ1-42 assay, 10 μL of 90 μM peptide or APS was mixed with 10 μL of 90 μM Aβ(1-42), 7 μL 20 mM Tris-Cl, 100 mM NaCl, pH 7.4 and 3 μL of 1 mM ThT. For the 1:5::inhibitor:Aβ1-42 assay, 10 μL of 18 μM peptide or APS was mixed with 10 μL of 90 μM Aβ(1-42), 7 μL 20 mM Tris-Cl, 100 mM NaCl, pH 7.4 and 3 μL of 1 mM ThT. ThT fluorescence in relative fluorescence units (RFU) was measured using a Perkin Elmer Victor^3 V plate reader. Assays were performed in 384-well fluorescence plates in duplicates or triplicates. Samples were incubated at 37° C. for a total of 48 hours. ThT fluorescence was measured at 0, 24, and 48 hours. The effect of the peptides and APS was calculated as percentage fibril formation relative to Aβ1-42 alone (100%) at the end of 48 hours.

DRFSVNLDVKHFS
effect on the fibrillization of Aβ (ranking) [1]: strongest effect | Δfluorescence (Aβ) [1]: 264,396,672 | decrease in ThT fluorescence of Aβ1-42 ([2]; 6 μM inhibitor, 37° C.): no effect

ERTIPITRE
Δfluorescence (Aβ) [1]: 576,742,720 | decrease in ThT fluorescence of Aβ1-42 ([2]; 6 μM inhibitor, 37° C.): no effect | decrease in ThT fluorescence of Aβ1-42 ([2]; 30 μM inhibitor (1:1)): no effect

HGKHEERQDE
effect on the fibrillization of Aβ (ranking) [1]: weakest effect | Δfluorescence (Aβ) [1]: 796,478,624 | effect on Aβ1-42 fibril formation, over all concentrations ([2]; any concentration): most effective inhibitor

LTITSSLSSDGV
Δfluorescence (Aβ) [1]: 352,301,312 | decrease in ThT fluorescence of Aβ1-42 ([2]; 6 μM inhibitor, 37° C.): no effect | decrease in ThT fluorescence of Aβ1-42 ([2]; 30 μM inhibitor (1:1)): no effect

STSLSPFYLRPPSFLRAP
Δfluorescence (Aβ) [1]: 478,389,568 | inhibition of Aβ fibrillation ([2]; peptide to substrate concentration of 1:5): 100%
